Results taken from article PMC7378079 (Scientific Reports, 2020).
Where a chain is given by its changes, count along the chain named. Names may count otherwise. Where two headings read alike, the source gives them in different places.

Legend:
TNKS2 (tankyrase 2) ARC4 [1] = target: T1, TNKS2 (tankyrase 2) ARC4 (Homo sapiens, UniProt Q9H2K2); assay: FRET competition with YFP-TBM peptide (Ki calculated from IC50); DSF Tm shift […] °C at […]; type: binding
T1 construct: ARC4 domain (ankyrin repeat cluster 4); CFP-ARC4 fusion in FRET, unlabelled ARC4 in DSF
T1 sequence (Q9H2K2 484-649 limits assumed): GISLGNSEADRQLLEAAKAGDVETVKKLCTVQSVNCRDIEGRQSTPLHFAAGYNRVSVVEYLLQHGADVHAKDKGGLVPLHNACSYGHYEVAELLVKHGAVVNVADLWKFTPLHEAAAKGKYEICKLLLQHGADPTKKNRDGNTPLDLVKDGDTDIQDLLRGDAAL

TNKS2 (tankyrase 2) ARC4 [2] = target: T1, TNKS2 (tankyrase 2) ARC4; assay: as above; type: binding; remark: listed apart in the source
unlabelled TNKS2 ARC4 = target: T2, unlabelled TNKS2 ARC4 (human, His6-MBP removed by TEV; the residual N-terminal SM is omitted; limits from the TNKS2 ARC4 crystal construct convention); assay: differential scanning fluorimetry; 5 µM unlabelled TNKS2 ARC4, 5x SYPRO Orange, 100 µM TBM peptide; assay buffer pH 7.0, 1% DMSO; 20-95 °C at 1 °C/min; 4 replicates; conditions: both partners purified
T2 chain: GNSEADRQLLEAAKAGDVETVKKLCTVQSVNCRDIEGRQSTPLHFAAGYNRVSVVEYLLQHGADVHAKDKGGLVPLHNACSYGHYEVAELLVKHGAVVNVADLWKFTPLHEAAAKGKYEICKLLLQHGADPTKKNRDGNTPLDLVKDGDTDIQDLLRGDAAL

TNKS1 SAM(E1050K)-CFP = target: T3, TNKS1 SAM(E1050K)-CFP (human, UniProt O95271 1030-1089, E1050K); assay: FRET or BRET; titration for Kd after Song et al.: CFP-fusion kept constant (50 nM to 1.1 µM), YFP-fusion 0-4,000 nM; FRET emission on excitation at 430 nm; assay buffer 10 mM Bis-Tris-Propane pH 7.0, 3% PEG20,000, 0.01% Triton-X100, 0.5 mM TCEP; 384-well plates, 4 replicates; the paper calls the constants an estimation; conditions: both partners purified
T3 construct: human tankyrase 1 (TNKS1), sterile alpha-motif (SAM) domain; also called ML surface mutant of the TNKS1 SAM domain; source: E. coli BL21(DE3), purified (IMAC); not shown: mCerulean (CFP), C-terminal, kept
T3 sequence (looked up): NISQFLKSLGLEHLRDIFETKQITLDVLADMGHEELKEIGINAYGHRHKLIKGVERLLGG

CFP-ARC2-3 (TNKS1) [3] = target: T4, CFP-ARC2-3 (TNKS1) (human, mCerulean fusion omitted; conventional ARC limits); assay: as above; conditions: both partners purified
T4 chain: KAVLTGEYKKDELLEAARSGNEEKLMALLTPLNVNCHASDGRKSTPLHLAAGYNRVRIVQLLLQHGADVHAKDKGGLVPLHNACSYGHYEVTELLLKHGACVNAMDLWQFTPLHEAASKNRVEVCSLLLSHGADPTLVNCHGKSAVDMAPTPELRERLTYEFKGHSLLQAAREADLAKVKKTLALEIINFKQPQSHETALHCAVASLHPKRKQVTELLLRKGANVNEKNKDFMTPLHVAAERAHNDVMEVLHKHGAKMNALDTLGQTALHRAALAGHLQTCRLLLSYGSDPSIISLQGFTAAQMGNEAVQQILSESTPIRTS

CFP-ARC2 (TNKS1) = target: T5, CFP-ARC2 (TNKS1) (human, N-terminal mCerulean fusion omitted; conventional ARC limits); assay: as above; conditions: both partners purified
T5 chain: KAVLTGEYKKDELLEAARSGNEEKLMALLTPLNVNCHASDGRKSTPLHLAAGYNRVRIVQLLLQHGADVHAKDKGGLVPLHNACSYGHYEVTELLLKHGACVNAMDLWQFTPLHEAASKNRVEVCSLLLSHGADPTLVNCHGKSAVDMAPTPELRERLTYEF

CFP-ARC4 (TNKS2) = target: T6, CFP-ARC4 (TNKS2) (human, N-terminal mCerulean fusion omitted; limits from the TNKS2 ARC4 crystal construct convention (e.g. 3TWR), as Table S1 is not shown); assay: as above; conditions: both partners purified
T6 chain: T2 chain

CFP-ARC1 (TNKS2) = target: T7, CFP-ARC1 (TNKS2) (human, N-terminal mCerulean fusion omitted; conventional ARC limits); assay: as above; conditions: both partners purified
T7 chain: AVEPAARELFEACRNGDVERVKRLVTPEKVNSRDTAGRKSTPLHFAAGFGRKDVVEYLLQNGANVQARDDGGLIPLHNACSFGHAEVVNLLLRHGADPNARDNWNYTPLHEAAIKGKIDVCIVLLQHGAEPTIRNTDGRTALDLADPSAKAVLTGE

CFP-ARC4 (TNKS1) = target: T8, CFP-ARC4 (TNKS1) (human, N-terminal mCerulean fusion omitted; limits by homology to TNKS2 ARC4 488-649); assay: as above; conditions: both partners purified
T8 chain: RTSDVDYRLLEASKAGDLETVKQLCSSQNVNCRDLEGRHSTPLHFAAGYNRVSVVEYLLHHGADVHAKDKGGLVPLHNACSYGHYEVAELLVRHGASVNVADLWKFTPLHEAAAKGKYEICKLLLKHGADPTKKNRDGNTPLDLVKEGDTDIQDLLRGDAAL

CFP-ARC5 (TNKS2) = target: T9, CFP-ARC5 (TNKS2) (human, N-terminal mCerulean fusion omitted; conventional ARC limits); assay: as above; conditions: both partners purified
T9 chain: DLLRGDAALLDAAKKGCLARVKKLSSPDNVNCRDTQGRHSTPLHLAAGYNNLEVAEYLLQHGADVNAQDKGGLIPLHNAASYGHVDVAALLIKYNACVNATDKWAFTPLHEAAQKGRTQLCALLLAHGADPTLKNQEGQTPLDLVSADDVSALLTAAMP

CFP-ARC5 (TNKS1) = target: T10, CFP-ARC5 (TNKS1) (human, N-terminal mCerulean fusion omitted; conventional ARC limits); assay: as above; conditions: both partners purified
T10 chain: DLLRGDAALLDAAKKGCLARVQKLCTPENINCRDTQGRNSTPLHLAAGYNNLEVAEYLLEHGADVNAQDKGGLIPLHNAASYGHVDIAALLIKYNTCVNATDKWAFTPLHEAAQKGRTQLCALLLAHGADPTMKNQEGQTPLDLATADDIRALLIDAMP

CFP-ARC1 (TNKS1) = target: T11, CFP-ARC1 (TNKS1) (human, N-terminal mCerulean fusion omitted; conventional ARC limits); assay: as above; conditions: both partners purified
T11 chain: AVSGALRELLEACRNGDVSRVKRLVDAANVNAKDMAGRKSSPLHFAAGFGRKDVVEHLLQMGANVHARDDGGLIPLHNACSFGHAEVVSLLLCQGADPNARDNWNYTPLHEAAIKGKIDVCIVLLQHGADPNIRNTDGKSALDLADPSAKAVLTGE

CFP-ARC2-3 (TNKS1) [4] = target: T4, CFP-ARC2-3 (TNKS1); assay: as above; conditions: both partners purified

`O=C(O)c1cc(O)c2c(Cl)cc(Cl)cc2n1` [DCKA, 5,7-dichlorokynurenic acid] showed a Ki (TNKS2 (tankyrase 2) ARC4 [1]) of 62000 nM.

`O=c1[nH]c2cc(C(F)(F)F)c(N3CCOCC3)cc2n(CP(=O)(O)O)c1=O` [Fanapanel] was tested, and the Ki (TNKS2 (tankyrase 2) ARC4 [2]) was 20000 nM.

B1: TBM-peptide (REAGDGEE) (peptide)
peptide: REAGDGEE
notes: also called 8-mer TBM peptide; source: synthetic peptide, bought: JPT Peptide Technologies
B1 was tested, and the “Tm shift at 100 µM” value (unlabelled TNKS2 ARC4) was 2.94 ± 0.16 °C.

B2: TNKS1 SAM(Y1073A)-YFP (domain or fragment, human, UniProt O95271 1030-1089, looked up)
chain: T3 sequence (looked up) with K21E, Y44A
notes: human tankyrase 1 (TNKS1), sterile alpha-motif (SAM) domain; also called EH surface mutant of the TNKS1 SAM domain; source: E. coli BL21(DE3), purified (IMAC); not shown: mCitrine (YFP), C-terminal, kept
Work on B2 yielded a Kd (TNKS1 SAM(E1050K)-CFP) of 560 nM.

B3: YFP-TBM (peptide)
chain: REAGDGEE
notes: also called TBM (REAGDGEE); YFP-fused TBM; source: E. coli BL21(DE3), purified (IMAC); not shown: mCitrine (YFP), N-terminal, kept
B3 showed a Kd (CFP-ARC2-3 (TNKS1) [3]) of 13 nM, a Kd (CFP-ARC2 (TNKS1)) of 8.2 nM and a Kd (CFP-ARC4 (TNKS2)) of 35 nM. It also gave a Kd (CFP-ARC1 (TNKS2)) of 970 nM, a Kd (CFP-ARC4 (TNKS1)) of 45 nM and a Kd (CFP-ARC5 (TNKS2)) of 33 nM. It also gave a Kd (CFP-ARC5 (TNKS1)) of 27 nM, a Kd (CFP-ARC1 (TNKS1)) of 2600 nM and a Kd (CFP-ARC2-3 (TNKS1) [4]) of 12 nM.
